Consider 19 sequences from a protein production outcome set (Wang et al. 2014).

The nature of this data set: label from the status in PepcDB records.
With “MAAKTMDFAGPAVSTGLGGLGPTRVSGAALMATLLFLGAPLLFAGNMLAARMMQGVLPPFTLASARWALAALVLLPFVRRELFGQRRAAPGRWRALVLPAVLGGALSVGPQYWAAHFTSAGNIALVFAMTPLLVALLDRLAGGARLGAPALAGMGLAIAGIATASFQGSLARLLAFQINPGDLLAGLAALAWAGYTVATRRPRAGLSGLALLWGVAAGGALTLAPAAAVEWLVLGVPSLSREAVLGVAFLAIVPSIGAYLAYGRLIGLVGPVVAGTSMYLIPLYALALGAMVLGEALGRYHLAAAALVIGGVALSRWRGAAKVCG”, the protein production result is listed as “failed”. Turning to “MFQDVLVITVAVGRGGDGAVSFRREKFVPKGGPDGGDGGRGGSVYLRARGSVDSLSRLSKRTYKAEDGEHGRGSQQHGRGGEDLVIEVPRGTRVFDADTGELLADLTEEGQTVLVARGGAGGRGNMHFVSPTRQAPRFAEAGEEGEKRRLRLELMLIADVGLVGYPNAGKSSLLAAMTRAHPKIAPYPFTTLSPNLGVVEVSEEERFTLADIPGIIEGASEGKGLGLEFLRHIAGTRVLLYVLDAADDPFKTLKTLRKKVWAYDPGLLGRPSLVALNKVDLLEKEAVKALADALAREGLAVLPVSALTGAGLPALKEALHALVRSTPPPEMPKPVPRKEVQAGVEVVPVAEGVYEVRAPEVERYLARIKGDLMEAAGYLQEVFRRQGVEAALRAKGVRAGDLVRIGGLEFEYIPEV”, the protein production entry is “not failed”.

As for “MSGMAKYMEIYIDIRDKINQNKYEINEKLPDGDSMARTYDCSKLTVKKALDMLVQEGMIIRRRGAGTFVKSHSTNGGEFALGPMSGLVNTFGKDNIKSKVILFSIEKPSKEVAEKLEMQDDYIYRIIRMREVGHKAYSIEHTYMPLAIIPGLEPHHLEDSIYNYIRDDLKLKMQSAHVWVRGDKSNQEDSKLLDLEEPTFMMEIEKLAHLEDGRVFEYSITRHTYESFVFETVFVQN”, the protein production result is “failed”. As for “MESSAINIAIVVVYLLAMLAFGWWGKSRTKNNSDFLVAGRRLGPFLYTGTMAAVVLGGASTVGGVGLGYKFGISGMWLVVAIGSGVLLLSLLFAGTIQKLKIYTVSQMLTLRYGSTATQTSGIVMLAYTLMLCATSTGAYATIFVVLFGWERWLAIAIGGAIVLVYSTIGGMWSITLADQVQFVIKTVGIFFLMLPFALNAAGGLDGIRARVDESFFDIGGIGLQTIITYFVVYTLGLLIGQDIWQRVFTAKTPTVARWGGATAGVYCILYGFAGALIGMAASVALSGVEIAAKDDVYAEVATRLLPIGIGGLVLAAAVAAMMSTASGALIAAATVARADVMPFVASWFGKKVDTSDSDNPEHDVKANRYWVLGLGIVAIIIAISTKDVVAALTIAYDILVGGLLVAIIGGLVWKRGTGIAAAWSMAAGSVITLGTMIILEINAEVPLDGIYANEPIYFGLIASAVVYVVVSLLSKPTDPAVMKAWTDRVAGTRVAEEELTTPAS”, the entry is “failed”; as for “MSEPVQLRQHGNAAVAMPLDALLAARTVWRAGQGRATVNGGESTGHAALDALLPDGGWPRRALTELLLPAHGIGEIALLLPTLARMTARGSRVVLVAPPFIPYAPAWQAGGVVLEHLEVVQAEPRAALWAFEQCLRSGACAAVLGWPQTGDARALRRLQVAADSGNCCAFALRDRRHAVNASPAALRLEFLPERDAWQVRKCRGGQVPSQPLRLAH”, “failed”; as for “MSNDQSAMNELHWLIDMVQTIEVGLVVLDRDYNIQLWNGFMENHSGVSPNSIKGQNLFSRFPDLPATWLKQKMESVFMLKNRAFISWEQRPYVFQFKNYRPITGRADFMYQNVTLLPLASLTGKITHISVIVYDVTDIAVNKLQLKAANEQLERLSQTDGLTQLHNRRHWQQCLEHEYDLYARYSGIASLVMIDIDHFKNINDTYGHLAGDKVIQHIAHILSHSLRETDCAGRYGGEEFAVVMPSTCGADALNFTERLREKIASSTVVYEGLKIKVTVSLGVCELGKHISSSSSWISCSDKALYEAKQKGRNCTVLHCAPTSAE”, “failed”. With “MTFLSQLSTHADKAFLRRLFAIALPITLQSIMFSSRSLVDVLMLGQLGEAEIAAVGVAARATFVTTIMLVGVTTGGALLTAQYWGAGDKIGVRQSTSLTWMIAMVFAALAVCLFVFFPQPIMGLTTDSQEVIELGSSYLVISSASMFAVACVASMAVGLRAMHQPGLSTFFSGIGILSNVFLNWVLIFGHLGFPALGITGAAIATVISGAIEVGCLFGYLWLKKHIIAFGWGDIRASLVLDKITRFLSLSLPTTFNFLAWAGGLFAYHAIMGQAGVQGLAALSVMTPVESIALAMMIGLSNAAAVLVGNQLGAKNFEPVYYQAWATVILNVLIAFGVAVLLFFTNQLILDAFSALSAETRHLAEQFMVILALGVILRSVPMMVIVGVLRAGGDVKFCLYQDVFAQWIIGIPLAAFAAIYLGWEPQWVYLLFLTEEVVKWCICLPRMKSKKWMKNLIEK”, the protein production result was “not failed”.

For the sequence “GGTSNEVAQFLSKENQVIVRMRGLPFTATAEEVVAFFGQHCPITGGKEGILFVTYPDGRPTGDAFVLFACEEYAQNALRKHKDLLGKRYIELFRSTAAEVQQVLNRFSSA”, the protein production entry is “not failed”.

As to “MAPCAGGTCRTASERRHLQCRSRPSQGRQGGSKSAGRGFIAAEFPCLDGGEPISTARAFRDRNREFSPAMRAILDIVLIILDLYIWLLIASAILSWLIAFNVVNTRNQFVGAVSEFLYRITEPLLAPIRNLLPSLGGLDISPIILILLIMFLQRVITYYIYPAVF”, the protein production entry was “failed”. As for “ESTLVNENVLENIPMGIIVVDINCNITSINDYALNIMDKNIESVIGMPVLDIIPTSDTPLVIKTKEKKLGKTQHINKHIVISNCCPIISNNNVIGALCVFQDIS”, the entry is “failed”; as for “MKNKKNNYDLMYFIPLVFLIYPIGGILYYHYPFWTLFFTLAFVGAYLYSVIIRGESKYHMIAWSTMLTYIFYMTIFINSGFIWYIYFLSNLLVYRFRDKLKSFRFISFACTLATVVFLCFFKASDFGDRIMFLIVPIFCIGYMWIAIENRNSEEQREKIAEQNQYINILSAENERNRIGRDLHDSLGHTFAMMTLKTELALKLLEKRNYDKVQKELSELNHISHQSMSEVRQIVSNLKYRTVVEEIDELYRLFQLSNIKLTVVNKLETSQLSPVTQSTITMILKELSNNIVKHAEADSVELSLVRQGATINIEMIDNGCGFTNLDGDELHSIQERLTIVEGTLTILSRSKPTHIQVVLKEV”, “failed”. Regarding “MRRYRTCDNPPPSNGGRACGGPDSQIQRCNTDMCPVDGSWGSWHSWSQCSASCGGGEKTRKRLCDHPVPVKGGRPCPGDTTQVTRCNVQACPGGPQRARGSVIGNINDVEFGIAFLNATITDSPNSDTRIIRAKITNVPRSLGSAMRKIVSILNPIYWTTAKEIGEAVNGFTLTNAVFKRETQVEFATGEILQMSHIARGLDSDGSLLLDIVVSGYVLQLQSPAEVTVKDYTEDYIQTGPGQLYAYSTRLFTIDGISIPYTWNHTVFYDQAQGRMPFLVETLHASSVESDYNQIEETLGFKIHASISKGDRSNQCPSGFTLDSVGPFCADEDECAAGNPCSHSCHNAMGTYYCSCPKGLTIAADGRTCQDIDECALGRHTCHAGQDCDNTIGSYRCVVRCGSGFRRTSDGLSCQDINECQESSPCHQRCFNAIGSFHCGCEPGYQLKGRKCMDVNECRQNVCRPDQHCKNTRGGYKCIDLCPNGMTKAENGTCIDIDECKDGTHQCRYNQICENTRGSYRCVCPRGYRSQGVGRPCMDIDECENTDACQHECKNTFGSYQCICPPGYQLTHNGKTCQDIDECLEQNVHCGPNRMCFNMRGSYQCIDTPCPPNYQRDPVSGFCLKNCPPNDLECALSPYALEYKLVSLPFGIATNQDLIRLVAYTQDGVMHPRTTFLMVDEEQTVPFALRDENLKGVVYTTRPLREAETYRMRVRASSYSANGTIEYQTTFIVYIAVSAYPY”, the protein production entry is listed as “failed”. As for “MPGSALLSLQQELRRGFEALKAAKDTFDGGHAECQELVSSLGNLAPQLKALKQVQISETPLSGFPCLQQRLHYKLSLAVDALLAKLAEKMAALQKVWDAFAQQVFTVVQLYEKNTDALDISVCVSRSAVCPSVSDMLEWLQDADRYYRLQLMQSRLLLQTLTPTDLTSMETAPNRWRSVRSARQEERIADALCQVSIFLETE”, the entry is “failed”. As for “MMQDISIFLAFGAGFLSFISPCCLPLYPAFLSYITGMSVSELKEENAMLRKRSMIHTAFFLLGFSIIFIAIGFGTSFIGGIFTDYKDLIRQLGGIFIIVFGLIIVGVFKPKFLMQDRKFTFKNRPSGYFGSVLIGLAFAAGWTPCTGPILVSVIGLAATNPESAMIYMIAYILGFAIPFFVLSFFITKMSWIKRNSMAFMKVGGYIMIVMGVFLYFNWMTKIIVYFSSLFGGFTGF”, the entry is “failed”. The value for “SLDSINTRIAEELSALPSGRVQPQQVAAAVALLDEGSTVPFIARYRKEVTGSLDDTQLRMLEERLRYLRELEERRGAILASIEEQGKLTPELARDIKLADTKTRLEDLYLPYKQKRRTKGQIALEAGLGALADALFDDPTLVPESEAARFVDAEKGFADVKAVLEGAKYILMERFAEDATLLDKLRVFMKNEATLTARVVPGKEQEGAKFSDYFEHDEPLKSAPSHRALAIFRGRNEGVLSASLKVGEEAPGTLHPCEVMIAQRFGLSNQGRAADKWLAEVVRWTWKVKLYTHLETDLFGELRDGAEDEAISVFARNLHDLLLAAPAGPRATLGLDPGLRTGVKVAVVDATGKLLDTATVYPHAPKNQWDQTLAVLAALCAKHQVELIAIGNGTASRETDKLAGELIKKYPGMKLTKIMVSEAGASVYSASELAAKEFPELDVSLRGAVSIARRLQDPLAELVKIEPKSIGVGQYQHDVSQLKLARSLDAVVEDCVNAVGVDVNTASAALLARISGLNSTLAQNIVAHRDANGAFRTRDELKKVSRLGEKTFEQAAGFLRVMNGDNPLDASAVHPETYPLVQRIAADTERDIRSLIGDSAFLKRLDPKKFTDETFGLPTVTDILKELDKPGRDPRPEFKTAEFQEGVESLKDLKPGMVLEGVVTNVTNFGAFVDIGVHQDGLVHISALSEKFVKDPYEVVKAGDIVKVKVMEVDIPRNRVGLSMRMSDTPGEKVEGQRGGRPTGSGQPRQERGAPRGQSAPPANNAMAALFANAKQLKKK” was “not failed”; that for “MSSSTGALHWQTAQAALARRDLGVAGSALQALLEVEPTHVSARVLLAGTVLANGRMREAVAQLQLAARDVDDDVAMRCRVAQALLRVGAHRQLHALLRHPSVMQCRDGATLALLAHVHQSLGEHVDALAMMQRAQVCGFDGPDFRFFLAVQLQFNGRLDDAAQALEQTLALVPGYGRAALTRARLRRQTVSSNHVDQLRQQLQRSKPDSEDRAGLAFALYKELEDLGDTDAAWDALQHGNAVMHARLRHDADAEASLYARLGTLAEQGVFAAQASDADAVALQGPQPIFVLGLPRSGTTVLERMLGNHSQIVSAGELNDFGHQLRWGADQAGRSLLDAGLLQAFPTLDYTQIGARYLEQTQWRAGPARWYIDKLPANAVAIGAIARALPGALIVHLVREPMAVCFSNYRALFGDSYAYSYDVHTLARHYQAYHGLMAQWRAALPGRVIDVDYTQMVRDPSTVLQQLMARCGLDIEPGQSDITRNAAASATLSSVQVREGVHSRNVEHWRRYAMQLEPLRQALAEAGLIDAGLH” was “failed”. For the sequence “MGVVFAFGFYLIFIKLTGLKLMDYFPRFKENRLKMIFSILSVILAFLINWLIMKNFSFLIEIIHPIASVWIFIILIYLLLRFLFLKRVPLSNYEKKFMGNMSAIAIFLELLKIIEYVDEHNIASPITVALVFFIPVVVFFNCKYFYEMELSS”, the protein production result is on record as “failed”.

As for “MPSEKEILDALSKVYSEQVIQADDYFRQAIFELASQLEKEGMSSLLATKIDSLINQYILTHQFDAPKSIFDLSRLVKTKASHYKGTAISAIMLGSFLSGGPK”, the protein production entry is recorded as “not failed”.

With “MAYLVFAYLVGSLVAGLLFFPEVRGKDLPGGSGVFRRKGPWAALLAVAFDLGKGALVALLTPEAYLPWAGALLVAGHTWPVFFRFRGGGGIAPSLGFFLVWRPAETLWATLFGLGVAGLYHLLFWRRRRKGIYPIPFGAIFGYLLLVYTLSGEARLGALLVAGVVLLRGLQILAGRW”, the protein production result is given as “failed”.
